For the assay, the target named is HIV envelope protein on HIV-infected cells (HIV). The assay can be described thus: cell-based or functional assay.

“anti-HIV chimeric antigen receptor comprising scFv derived from PGT128 (PGT128 CAR)” came in with an HIV-infected cells killed at 48 hours, against CARCD19 T-cells of 56%.
